Where two headings read alike, the source gives them in different places. Bridge positions count the residues as written; N and C are the ends. Square brackets hold non-standard residues; d marks the D form. hArg = N=C(N)NCCCC[C@H](N)C(=O)O
Legend:
PCSK9Δhelix [1] = biological target: T1, PCSK9Δhelix (human, UniProt Q8NBP7 31-152; Q8NBP7 168-692); experiment: TR-FRET competition; competitor Ab20 binding to His-PCSK9Δhelix
T1 construct: Made by TEV cleavage of human PCSK9 M1-Q692 with an engineered TEV site; The new N-terminus of the catalytic domain is S-A168; also called His-PCSK9Δhelix; PCSK9 lacking the P' helix

[2] = biological target: T2, PCSK9 (proprotein convertase subtilisin/kexin type 9), His-tagged, full-length (human, UniProt Q8NBP7 31-692); experiment: TR-FRET competition; competitor EGF(A)-Fc binding to His-PCSK9
T2 construct: Captured by the His tag (SPR Methods 1 and 2), amine-coupled (Method 3), or His-tagged in TR-FRET; also called His-PCSK9

[3] = biological target: T3, PCSK9Δhelix (human PCSK9 lacking the P' helix, His-tagged) (human, UniProt Q8NBP7 31-152; Q8NBP7 168-692); experiment: TR-FRET competition; His-PCSK9Δhelix with Ab20 as competitor ligand
T3 construct: Construct M1-Q692 with an engineered TEV site (Y166 and R167 deleted, ENLYFQS inserted between R165 and A168); also called His-PCSK9Δhelix; C-terminal (His)8-tagged PCSK9Δhelix

[4] = biological target: T3, PCSK9Δhelix (human PCSK9 lacking the P' …); experiment: SPR (Biacore), His-tagged PCSK9Δhelix captured on NTA chip
PCSK9Δhelix [5] = biological target: T1, PCSK9Δhelix; experiment: TR-FRET competition; competitor Ab20 binding to His-PCSK9Δhelix; remark: listed apart in the source
[6] = biological target: T2, PCSK9 (proprotein convertase …); experiment: TR-FRET competition; competitor EGF(A)-Fc binding to His-PCSK9; remark: listed apart in the source
[7] = biological target: T3, PCSK9Δhelix (human PCSK9 lacking the P' …); experiment: TR-FRET competition; His-PCSK9Δhelix with Ab20 as competitor ligand; remark: listed apart in the source
[8] = biological target: T4, His-tagged, full-length human PCSK9 (proprotein convertase subtilisin/kexin type 9) (human, UniProt A8T644 31-152; Q8NBP7 153-692); experiment: TR-FRET competition; His-PCSK9 with LDLR-Fc as competitor ligand
T4 construct: also called His-PCSK9; C-terminal (His)8-tagged PCSK9

[9] = biological target: T4, His-tagged, full-length human PCSK9 …; experiment: TR-FRET competition; His-PCSK9 with EGF(A)-Fc as competitor ligand
[10] = biological target: T2, PCSK9 (proprotein convertase …); experiment: SPR, Method 1 (Biacore T100, His-tagged target captured on NTA chip)
PCSK9Δhelix [11] = biological target: T1, PCSK9Δhelix; experiment: as above

T2 sequence (Q8NBP7 31-692 limits assumed): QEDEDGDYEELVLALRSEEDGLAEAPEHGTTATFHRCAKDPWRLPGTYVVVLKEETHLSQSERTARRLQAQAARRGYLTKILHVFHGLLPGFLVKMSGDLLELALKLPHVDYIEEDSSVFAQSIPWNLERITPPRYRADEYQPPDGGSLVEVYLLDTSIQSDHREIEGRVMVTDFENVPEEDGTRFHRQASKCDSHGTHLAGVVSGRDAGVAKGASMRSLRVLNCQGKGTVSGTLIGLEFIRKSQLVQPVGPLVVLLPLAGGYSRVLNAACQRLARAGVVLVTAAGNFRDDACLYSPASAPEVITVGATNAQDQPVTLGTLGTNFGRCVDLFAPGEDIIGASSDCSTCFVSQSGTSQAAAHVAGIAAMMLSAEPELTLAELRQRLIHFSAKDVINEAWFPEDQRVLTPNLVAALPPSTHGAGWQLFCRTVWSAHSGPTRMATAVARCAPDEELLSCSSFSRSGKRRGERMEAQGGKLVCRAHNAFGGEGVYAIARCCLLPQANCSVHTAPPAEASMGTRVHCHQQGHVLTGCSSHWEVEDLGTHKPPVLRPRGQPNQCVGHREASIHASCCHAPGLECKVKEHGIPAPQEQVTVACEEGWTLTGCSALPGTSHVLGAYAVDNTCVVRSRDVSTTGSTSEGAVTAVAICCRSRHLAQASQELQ
T4 sequence (A8T644 31-152, chain 1 of 2): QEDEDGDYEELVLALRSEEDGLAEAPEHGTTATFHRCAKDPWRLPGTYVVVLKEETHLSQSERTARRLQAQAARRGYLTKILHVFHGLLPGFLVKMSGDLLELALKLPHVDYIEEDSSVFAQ
T4 sequence (A8T644 other isoform, or with tags, fused parts or gaps, chain 2 of 2): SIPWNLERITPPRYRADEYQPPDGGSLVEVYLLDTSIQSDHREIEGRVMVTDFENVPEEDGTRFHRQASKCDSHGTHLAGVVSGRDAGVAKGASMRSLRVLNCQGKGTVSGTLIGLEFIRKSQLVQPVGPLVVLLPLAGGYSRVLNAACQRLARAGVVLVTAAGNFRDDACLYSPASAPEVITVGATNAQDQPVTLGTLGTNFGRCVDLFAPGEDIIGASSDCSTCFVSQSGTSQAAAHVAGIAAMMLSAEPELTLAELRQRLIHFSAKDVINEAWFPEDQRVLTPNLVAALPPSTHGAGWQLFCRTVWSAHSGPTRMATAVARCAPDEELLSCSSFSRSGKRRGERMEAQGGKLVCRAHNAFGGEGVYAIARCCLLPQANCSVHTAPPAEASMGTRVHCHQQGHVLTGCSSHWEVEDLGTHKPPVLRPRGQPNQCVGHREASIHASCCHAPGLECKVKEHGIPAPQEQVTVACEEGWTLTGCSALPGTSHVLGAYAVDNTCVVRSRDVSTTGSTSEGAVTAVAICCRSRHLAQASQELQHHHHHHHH
T3 sequence (Q8NBP7 31-152, stated change not applied, chain 1 of 2): as the sequence (A8T644 31-152, chain 1 of 2) above
T3 sequence (Q8NBP7 other isoform, or with tags, fused parts or gaps mutant, chain 2 of 2): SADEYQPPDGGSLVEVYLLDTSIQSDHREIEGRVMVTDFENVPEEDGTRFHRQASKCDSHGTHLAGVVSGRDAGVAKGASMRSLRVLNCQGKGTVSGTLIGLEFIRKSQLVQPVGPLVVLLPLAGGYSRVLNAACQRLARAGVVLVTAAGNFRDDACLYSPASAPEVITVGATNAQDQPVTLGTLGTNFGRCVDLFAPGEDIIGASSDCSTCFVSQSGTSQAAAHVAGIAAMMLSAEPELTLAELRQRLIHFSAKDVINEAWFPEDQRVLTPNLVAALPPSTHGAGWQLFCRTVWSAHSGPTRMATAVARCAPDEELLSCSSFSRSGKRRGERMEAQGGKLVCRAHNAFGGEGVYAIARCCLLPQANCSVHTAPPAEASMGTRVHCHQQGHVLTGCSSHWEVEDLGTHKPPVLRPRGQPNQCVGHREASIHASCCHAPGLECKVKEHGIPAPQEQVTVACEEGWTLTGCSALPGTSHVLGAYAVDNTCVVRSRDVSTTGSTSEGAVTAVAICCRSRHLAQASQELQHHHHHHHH
T1 sequence (Q8NBP7 31-152, stated change not applied, chain 1 of 2): as the sequence (A8T644 31-152, chain 1 of 2) above
T1 sequence (Q8NBP7 other isoform, or with tags, fused parts or gaps mutant, chain 2 of 2): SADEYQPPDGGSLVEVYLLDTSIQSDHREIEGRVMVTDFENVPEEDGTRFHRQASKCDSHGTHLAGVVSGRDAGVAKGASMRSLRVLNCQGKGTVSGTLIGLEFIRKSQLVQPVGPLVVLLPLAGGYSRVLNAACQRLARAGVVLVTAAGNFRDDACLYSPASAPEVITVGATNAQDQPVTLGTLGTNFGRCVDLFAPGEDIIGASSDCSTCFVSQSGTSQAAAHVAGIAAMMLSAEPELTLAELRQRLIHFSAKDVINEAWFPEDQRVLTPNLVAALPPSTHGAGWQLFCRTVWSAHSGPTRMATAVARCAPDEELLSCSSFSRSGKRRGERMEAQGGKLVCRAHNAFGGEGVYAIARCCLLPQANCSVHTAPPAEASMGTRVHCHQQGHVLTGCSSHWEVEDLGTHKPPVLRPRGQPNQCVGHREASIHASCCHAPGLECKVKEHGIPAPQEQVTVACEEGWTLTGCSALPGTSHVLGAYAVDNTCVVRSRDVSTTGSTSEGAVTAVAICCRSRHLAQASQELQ

Ac-TVFTSWEEYLDWVGSGKLWNLG-NH2 [Compound 5]
IC50 (PCSK9Δhelix [1]): 11100 nM | IC50 [2]: 720 nM

Ac-PWNLVRIGLLR-NH2 [Compound 52: Ac-PWNLVRIGLLR-NH2]
IC50 [3]: 15900 nM | Kd [4]: 2100 nM

Ac-TVFTSWEEYLDWVGSGGCRLPWNLQRIGLPC-NH2 (disulfide 18-31 (inferred), Two Cys, disulfide-cyclized) [Compound 25]
IC50 (PCSK9Δhelix [5]): 83 nM | IC50 [6]: 781 nM

Ac-TVFTSWEEYLDWVGSGGCFLPWNLQRIGLLC-NH2 (disulfide 18-31 (inferred), Two Cys, disulfide-cyclized) [Compound 38]
IC50 (PCSK9Δhelix [5]): 3 nM | IC50 [6]: 471 nM

Ac-WNLVRIGLLR-NH2 [Compound 53: Ac-WNLVRIGLLR-NH2]
IC50 [3]: 52400 nM | Kd [4]: 14000 nM

Ac-TVFTSWEEYLDWVGGSGCWNLKRIGSQGC-NH2 (disulfide 18-29 (inferred), Two Cys, disulfide-cyclized) [Compound 13]
IC50 (PCSK9Δhelix [5]): 1 nM | IC50 [6]: 10 nM

Ac-TVFTSWEEYLDWVGSGGCWNLKRIGSQGC-NH2 (disulfide 18-29 (inferred), Two Cys, disulfide-cyclized) [Compound 14]
IC50 (PCSK9Δhelix [5]): 1 nM | IC50 [6]: 9 nM

Ac-MPWNLVRIGLLR-NH2 [Compound 51: Ac-MPWNLVRIGLLR-NH2]
IC50 [3]: 6600 nM | Kd [4]: 1400 nM

Ac-LMPWNLVRIGLLR-NH2 [Compound 50: Ac-LMPWNLVRIGLLR-NH2]
IC50 [3]: 3600 nM | Kd [4]: 470 nM

B1: Compound 229: Ac-MESFPGWNLV(homoR)IGLLR-NH2 (peptide)
peptide: Ac-MESFPGWNLV[hArg]IGLLR-NH2
SMILES: CC[C@H](C)[C@H](NC(=O)[C@H](CCCCNC(=N)N)NC(=O)[C@@H](NC(=O)[C@H](CC(C)C)NC(=O)[C@H](CC(N)=O)NC(=O)[C@H](Cc1c[nH]c2ccccc12)NC(=O)CNC(=O)[C@@H]1CCCN1C(=O)[C@H](Cc1ccccc1)NC(=O)[C@H](CO)NC(=O)[C@H](CCC(=O)O)NC(=O)[C@H](CCSC)NC(C)=O)C(C)C)C(=O)NCC(=O)N[C@@H](CC(C)C)C(=O)N[C@@H](CC(C)C)C(=O)N[C@@H](CCCNC(=N)N)C(N)=O
IC50 [7]: 840 nM | IC50 [8]: 25000 nM | IC50 [9]: 8300 nM

B2: Compound 19 (peptide)
peptide: Ac-TVFTSWEEYLDWVGSGCRLPWNLQRIGLPC-NH2
modifications: disulfide 17-30 (inferred)
notes: Two Cys, disulfide-cyclized; also called Pep2-8p4; Pep2-8_K9gvpep4
IC50 (PCSK9Δhelix [5]): 2 nM | IC50 [6]: 9 nM | Kd [10]: 2.07 nM | Kd (PCSK9Δhelix [11]): 0.0989 nM

B3: Compound 231: Ac-ESYPGWNLV(homoR)IGLLR-NH2 (peptide)
peptide: Ac-ESYPGWNLV[hArg]IGLLR-NH2
SMILES: CC[C@H](C)[C@H](NC(=O)[C@H](CCCCNC(=N)N)NC(=O)[C@@H](NC(=O)[C@H](CC(C)C)NC(=O)[C@H](CC(N)=O)NC(=O)[C@H](Cc1c[nH]c2ccccc12)NC(=O)CNC(=O)[C@@H]1CCCN1C(=O)[C@H](Cc1ccc(O)cc1)NC(=O)[C@H](CO)NC(=O)[C@H](CCC(=O)O)NC(C)=O)C(C)C)C(=O)NCC(=O)N[C@@H](CC(C)C)C(=O)N[C@@H](CC(C)C)C(=O)N[C@@H](CCCNC(=N)N)C(N)=O
IC50 [7]: 1490 nM | IC50 [8]: > 50000 nM | IC50 [9]: 15800 nM

B4: Compound 230: Ac-DSYPGWNLV(homoR)IGLLR-NH2 (peptide)
peptide: Ac-DSYPGWNLV[hArg]IGLLR-NH2
SMILES: CC[C@H](C)[C@H](NC(=O)[C@H](CCCCNC(=N)N)NC(=O)[C@@H](NC(=O)[C@H](CC(C)C)NC(=O)[C@H](CC(N)=O)NC(=O)[C@H](Cc1c[nH]c2ccccc12)NC(=O)CNC(=O)[C@@H]1CCCN1C(=O)[C@H](Cc1ccc(O)cc1)NC(=O)[C@H](CO)NC(=O)[C@H](CC(=O)O)NC(C)=O)C(C)C)C(=O)NCC(=O)N[C@@H](CC(C)C)C(=O)N[C@@H](CC(C)C)C(=O)N[C@@H](CCCNC(=N)N)C(N)=O
IC50 [7]: 2420 nM | IC50 [8]: > 50000 nM | IC50 [9]: 24200 nM

B5: Compound 227: Ac-ESFPGWNLV(homoR)IGLLR-NH2 (peptide)
peptide: Ac-ESFPGWNLV[hArg]IGLLR-NH2
SMILES: CC[C@H](C)[C@H](NC(=O)[C@H](CCCCNC(=N)N)NC(=O)[C@@H](NC(=O)[C@H](CC(C)C)NC(=O)[C@H](CC(N)=O)NC(=O)[C@H](Cc1c[nH]c2ccccc12)NC(=O)CNC(=O)[C@@H]1CCCN1C(=O)[C@H](Cc1ccccc1)NC(=O)[C@H](CO)NC(=O)[C@H](CCC(=O)O)NC(C)=O)C(C)C)C(=O)NCC(=O)N[C@@H](CC(C)C)C(=O)N[C@@H](CC(C)C)C(=O)N[C@@H](CCCNC(=N)N)C(N)=O
IC50 [7]: 2510 nM | IC50 [8]: > 50000 nM | IC50 [9]: 23200 nM

Ac-TVFTSWEEYLDWVGSGDLMPWNLVRIGLLR-NH2 (also called Pep2-8p7; Pep2-8_K9gvpep7) [Compound 20]
IC50 (PCSK9Δhelix [1]): 1 nM | IC50 [2]: 37 nM | Kd [10]: 5.56 nM | Kd (PCSK9Δhelix [11]): 0.366 nM

Ac-TVFTSWEEYLDWVGSGKLWN-NH2 [Compound 7]
IC50 (PCSK9Δhelix [1]): 18600 nM | IC50 [2]: 500 nM

SGDLMPWNLVRIGLLR (Free N- and C-termini as printed) [Compound 28]
Kd [10]: 46100 nM | Kd (PCSK9Δhelix [11]): 856 nM

H-SGCFIPWNLQRIGLLC-NH2 (disulfide 3-16 (inferred), Two Cys, disulfide-cyclized) [Compound 26]
Kd [10]: 29000 nM | Kd (PCSK9Δhelix [11]): 802 nM

Ac-TVFTSWEEYLDWVGGSGKLWNLGRV-NH2 [Compound 8]
IC50 (PCSK9Δhelix [1]): 49 nM | IC50 [2]: 1030 nM

Ac-TVFTSWEEYLDWVGSGGKLWNLGRV-NH2 [Compound 9]
IC50 (PCSK9Δhelix [1]): 65 nM | IC50 [2]: 390 nM

Ac-TVFTSWEEYLDWVGSGKLWNL-NH2 [Compound 6]
IC50 (PCSK9Δhelix [1]): 10000 nM | IC50 [2]: 740 nM

Ac-DLMPWNLVRIGLLR-NH2 [Compound 35: Ac-DLMPWNLVRIGLLR-NH2]
IC50 [3]: 7900 nM | Kd [4]: 1380 nM

B6: Compound 228: Ac-SFAFPGWNLV(homoR)IGLLR-NH2 (peptide)
peptide: Ac-SFAFPGWNLV[hArg]IGLLR-NH2
SMILES: CC[C@H](C)[C@H](NC(=O)[C@H](CCCCNC(=N)N)NC(=O)[C@@H](NC(=O)[C@H](CC(C)C)NC(=O)[C@H](CC(N)=O)NC(=O)[C@H](Cc1c[nH]c2ccccc12)NC(=O)CNC(=O)[C@@H]1CCCN1C(=O)[C@H](Cc1ccccc1)NC(=O)[C@H](C)NC(=O)[C@H](Cc1ccccc1)NC(=O)[C@H](CO)NC(C)=O)C(C)C)C(=O)NCC(=O)N[C@@H](CC(C)C)C(=O)N[C@@H](CC(C)C)C(=O)N[C@@H](CCCNC(=N)N)C(N)=O
IC50 [7]: 1370 nM | IC50 [8]: 30400 nM | IC50 [9]: 13200 nM

Ac-WNLV[hArg]IGLLR-NH2 [Compound 192: Ac-WNLV(homoR)IGLLR-NH2]
IC50 [3]: 5600 nM | IC50 [7]: 5550 nM | Kd [4]: 1000 nM | IC50 [8]: > 50000 nM | IC50 [9]: > 50000 nM

Ac-TVFTSWEEYLDWVGSGCWNLGRIGSQGC-NH2 (disulfide 17-28 (inferred), Two Cys, disulfide-cyclized) [Compound 11]
IC50 [6]: 340 nM

Ac-TVFTSWEEYLDWVGSGCWNLKRVGSQGC-NH2 (disulfide 17-28 (inferred), Two Cys, disulfide-cyclized) [Compound 12]
IC50 [6]: 190 nM

Reference: patent US20200283478A1 (Genentech, published 2020)
